± gives the standard deviation of the averaged measurements.
B1: library; a variant is named by its letters at N, in order (parent)
chain: GCUGUCACCGGUGUAUUACCCUAGUGGUCGACCGGUCUGAUGAGUCUNNNNNNAGACGAAACAGC

How the values were obtained:
hypoxanthine [1] = variants of: B1; experiment: normalized RNA/DNA level with ligand (relative to sTRSVctl = 100) (log10 (% of sTRSVctl)); ligand: hypoxanthine (xanthine aptamer); higher = less ribozyme self-cleavage, higher mRNA level; details: ligand concentration (+) RNA-Seq: 5 mM, HEK293T, reporter: mCherry (pCS4076), ligand present: yes
Outline: (§1)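 Library plasmids encoding reporter-linked ribozyme switches (mCherry, or eGFP for some folinic acid experiments) were transfected into HEK293T at 4 µg per 6-well well. Ligand, when used, was added 1 h before transfection. Total RNA was extracted with EDTA 72 h later, then reverse-transcribed, amplified, barcoded and sequenced. RNA level was RNA reads over DNA reads, divided by a spiked-in non-cleaving control (or the top 25 sequences), ×100, log10; only sequences with ≥100 DNA reads were kept.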

hypoxanthine [2] = variants of: B1; experiment: normalized RNA/DNA level without ligand (relative to sTRSVctl = 100) (log10 (% of sTRSVctl)); ligand: hypoxanthine (xanthine aptamer); higher = less ribozyme self-cleavage, higher mRNA level; details: HEK293T, reporter: mCherry (pCS4076), ligand present: no
Outline: as §1

## CGAUCA
Hypoxanthine [1]
  normalized RNA/DNA level with ligand (log10): 1.9299 ± 0.00072
Hypoxanthine [2]
  normalized RNA/DNA level without ligand (log10): 1.7 ± 0.048

## CGAUCC
Hypoxanthine [1]
  normalized RNA/DNA level with ligand (log10): 2.013 ± 0.0062
Hypoxanthine [2]
  normalized RNA/DNA level without ligand (log10): 1.898 ± 0.0043

## AGACCG
Hypoxanthine [1]
  normalized RNA/DNA level with ligand (log10): 1.925 ± 0.004
Hypoxanthine [2]
  normalized RNA/DNA level without ligand (log10): 1.75 ± 0.067

## AGACCU
Hypoxanthine [1]
  normalized RNA/DNA level with ligand (log10): 1.92 ± 0.023
Hypoxanthine [2]
  normalized RNA/DNA level without ligand (log10): 1.88 ± 0.044

## AGACCA
Hypoxanthine [1]
  normalized RNA/DNA level with ligand (log10): 1.93 ± 0.046
Hypoxanthine [2]
  normalized RNA/DNA level without ligand (log10): 1.85 ± 0.015

## CGACAU
Hypoxanthine [1]
  normalized RNA/DNA level with ligand (log10): 1.887 ± 0.012
Hypoxanthine [2]
  normalized RNA/DNA level without ligand (log10): 1.74 ± 0.021

## CGACAG
Hypoxanthine [1]
  normalized RNA/DNA level with ligand (log10): 1.93 ± 0.037
Hypoxanthine [2]
  normalized RNA/DNA level without ligand (log10): 1.68 ± 0.053

## UGAGUU
Hypoxanthine [1]
  normalized RNA/DNA level with ligand (log10): 1.92 ± 0.039
Hypoxanthine [2]
  normalized RNA/DNA level without ligand (log10): 1.85 ± 0.042

## UGAGUA
Hypoxanthine [1]
  normalized RNA/DNA level with ligand (log10): 1.902 ± 0.015
Hypoxanthine [2]
  normalized RNA/DNA level without ligand (log10): 1.81 ± 0.091

## GGAUUA
Hypoxanthine [1]
  normalized RNA/DNA level with ligand (log10): 1.94 ± 0.04
Hypoxanthine [2]
  normalized RNA/DNA level without ligand (log10): 1.83 ± 0.057

## GGAUUC
Hypoxanthine [1]
  normalized RNA/DNA level with ligand (log10): 1.98 ± 0.041
Hypoxanthine [2]
  normalized RNA/DNA level without ligand (log10): 1.94 ± 0.0086

## GGAUUU
Hypoxanthine [1]
  normalized RNA/DNA level with ligand (log10): 1.99 ± 0.024
Hypoxanthine [2]
  normalized RNA/DNA level without ligand (log10): 1.89 ± 0.02

## AGAUUG
Hypoxanthine [1]
  normalized RNA/DNA level with ligand (log10): 1.88 ± 0.042
Hypoxanthine [2]
  normalized RNA/DNA level without ligand (log10): 1.47 ± 0.022

## AGAUUA
Hypoxanthine [1]
  normalized RNA/DNA level with ligand (log10): 1.91 ± 0.024
Hypoxanthine [2]
  normalized RNA/DNA level without ligand (log10): 1.8 ± 0.031

## AGAUUU
Hypoxanthine [1]
  normalized RNA/DNA level with ligand (log10): 1.92 ± 0.021
Hypoxanthine [2]
  normalized RNA/DNA level without ligand (log10): 1.893 ± 0.011

## GGCGAA
Hypoxanthine [1]
  normalized RNA/DNA level with ligand (log10): 1.92 ± 0.037
Hypoxanthine [2]
  normalized RNA/DNA level without ligand (log10): 1.801 ± 0.017

## GGCGAG
Hypoxanthine [1]
  normalized RNA/DNA level with ligand (log10): 1.82 ± 0.021
Hypoxanthine [2]
  normalized RNA/DNA level without ligand (log10): 1.47 ± 0.087

## GGCGAC
Hypoxanthine [1]
  normalized RNA/DNA level with ligand (log10): 1.93 ± 0.12
Hypoxanthine [2]
  normalized RNA/DNA level without ligand (log10): 1.83 ± 0.021

## AGCCUA
Hypoxanthine [1]
  normalized RNA/DNA level with ligand (log10): 1.987 ± 0.019
Hypoxanthine [2]
  normalized RNA/DNA level without ligand (log10): 1.87 ± 0.028

## AGCCUC
Hypoxanthine [1]
  normalized RNA/DNA level with ligand (log10): 2.01 ± 0.082
Hypoxanthine [2]
  normalized RNA/DNA level without ligand (log10): 1.959 ± 0.019

## CGCCCC
Hypoxanthine [1]
  normalized RNA/DNA level with ligand (log10): 1.971 ± 0.013
Hypoxanthine [2]
  normalized RNA/DNA level without ligand (log10): 1.922 ± 0.0052

## CGCCCG
Hypoxanthine [1]
  normalized RNA/DNA level with ligand (log10): 1.958 ± 0.0098
Hypoxanthine [2]
  normalized RNA/DNA level without ligand (log10): 1.915 ± 0.005

## CGCCCA
Hypoxanthine [1]
  normalized RNA/DNA level with ligand (log10): 1.96 ± 0.06
Hypoxanthine [2]
  normalized RNA/DNA level without ligand (log10): 1.92 ± 0.041

## CGCCCU
Hypoxanthine [1]
  normalized RNA/DNA level with ligand (log10): 2.077 ± 0.0049
Hypoxanthine [2]
  normalized RNA/DNA level without ligand (log10): 1.952 ± 0.014

## UGAUAG
Hypoxanthine [1]
  normalized RNA/DNA level with ligand (log10): 1.88 ± 0.04
Hypoxanthine [2]
  normalized RNA/DNA level without ligand (log10): 1.7 ± 0.041

## UGAUAC
Hypoxanthine [1]
  normalized RNA/DNA level with ligand (log10): 1.926 ± 0.0041
Hypoxanthine [2]
  normalized RNA/DNA level without ligand (log10): 1.848 ± 0.011

## UGAUAA
Hypoxanthine [1]
  normalized RNA/DNA level with ligand (log10): 1.91 ± 0.028
Hypoxanthine [2]
  normalized RNA/DNA level without ligand (log10): 1.8144 ± 0.0015

## GGAGGG
Hypoxanthine [1]
  normalized RNA/DNA level with ligand (log10): 1.883 ± 0.018
Hypoxanthine [2]
  normalized RNA/DNA level without ligand (log10): 1.493 ± 0.0022

## GGAGGC
Hypoxanthine [1]
  normalized RNA/DNA level with ligand (log10): 1.82 ± 0.08
Hypoxanthine [2]
  normalized RNA/DNA level without ligand (log10): 1.37 ± 0.057

— the supplement of paper PMC6757056
